This is an account of results in article doi:10.1101/209643 (bioRxiv, 2017).

This data set deals with the molecule itself. The data set is described as follows: TIRF microscopy of filament polymerisation.

B1: Double mutant septin complex (Cdc10, Cdc3, Cdc12 T75A, Cdc11 D65T-GFP) (complex)
chain 1: MSAATATAAPVPPPVGISNLPNQRYKIVNEEGGTFTVMLCGESGLGKTTFINTLFQTVLKRADGQQHRQEPIRKAVEIDITRALLEEKHFELRVNVIDTPGFGDNVNNNKAWQPLVDFIDDQHDSYMRQEQQPYRTKKFDLRVHAVLYFIRPTGHGLKPIDIETMKRLSTRANLIPVIAKADTLTAQELQQFKSRIRQVIEAQEIRIFTPPLDADSKEDAKSGSNPDSAAVEHARQLIEAMPFAIVGSEKKFDNGQGTQVVARKYPWGLVEIENDSHCDFRKLRALLLRTYLLDLISTTQEMHYETYRRLRLEGHENTGEGNEDFTLPAIAPARKLSHNPRYKEEENALKKYFTDQVKAEEQRFRQWEQNIVNERIRLNGDLEEIQGKVKKLEEQVKSLQVKKSHLK
chain 2: MDPLSSVQPASYVGFDTITNQIEHRLLKKGFQFNIMVVGQSGLGKSTLINTLFASHLIDSATGDDISALPVTKTTEMKISTHTLVEDRVRLNINVIDTPGFGDFIDNSKAWEPIVKYIKEQHSQYLRKELTAQRERFITDTRVHAILYFLQPNGKELSRLDVEALKRLTEIANVIPVIGKSDTLTLDERTEFRELIQNEFEKYNFKIYPYDSEELTDEELELNRSVRSIIPFAVVGSENEIEINGETFRGRKTRWSAINVEDINQCDFVYLREFLIRTHLQDLIETTSYIHYEGFRARQLIALKENANSRSSAHMSSNAIQR
chain 3: MSLKEEQVSIKQDPEQEERQHDQFNDVQIKQESQDHDGVDSQYTNGTQNDDSERFEAAESDVKVEPGLGMGITSSQSEKGQVLPDQPEIKFIRRQINGYVGFANLPKQWHRRSIKNGFSFNLLCVGPDGIGKTTLMKTLFNNDDIEANLVKDYEEELANDQEEEEGQGEGHENQSQEQRHKVKIKSYESVIEENGVKLNLNVIDTEGFGDFLNNDQKSWDPIIKEIDSRFDQYLDAENKINRHSINDKRIHACLYFIEPTGHYLKPLDLKFMQSVYEKCNLIPVIAKSDILTDEEILSFKKTIMNQLIQSNIELFKPPIYSNDDAENSHLSERLFSSLPYAVIGSNDIVENYSGNQVRGRSYPWGVIEVDNDNHSDFNLLKNLLIKQFMEELKERTSKILYENYRSSKLAKLGIKQDNSVFKEFDPISKQQEEKTLHEAKLAKLEIEMKTVFQQKVSEKEKKLQKSETELFARHKEMKEKLTKQLKALEDKKKQLELSINSASPNVNHSPVPTKKKGFLR
chain 4: MSGIIDASSALRKRKHLKRGITFTVMIVGQSGSGRSTFINTLCGQQVVDTSTTILLPTDTSTEITLQLREETVELEDDEGVKIQLNIIDTPGFGDSLDNSPSFEIISDYIRHQYDEILLEESRVRRNPRFKDGRVHCCLYLINPTGHGLKEIDVEFIRQLGSLVNIIPVISKSDSLTRDELKLNKKLIMEDIDRWNLPIYNFPFDEDEISDEDYETNMYLRTLLPFAIIGSNEVYEMGGDVGTIRGRKYPWGILDVEDSSISDFVILRNALLISHLHDLKNYTHEILYERYRTEALSGESVAAESIRPNLTKLNGSSSSSTTTRRNTNPFKQSNNINNDVLNPASDMHGQSTGENNETYMTREEQIRLEEERLKAFEERVQQELLLKRQELLQREKELREIEARLEKEAKIKQEE
Consider B1, for which the binding result is recorded as “binds”.
